# Measurements: the nanobody polyreactivity screen of Harvey et al. (2022)
# Test: yeast display, Sf9 membrane polyspecificity reagent, FACS + sequencing; frameworks hold sequencing errors
# Summary of the method: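 In a synthetic yeast display library (Saccharomyces cerevisiae BJ5465), nanobody expression was induced with galactose for 36–48 hours. FACS gates were set low and high (top ~1%) using anti-HA fluorescence for expression and streptavidin fluorescence for binding of the Sf9 membrane reagent. Each polyreactivity label is drawn from the gate of origin.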
row,Sequence,polyreactivity (PSR sort gate)
1,QVQLVESGGGLVQAGGSLRLSCAASGFTFGRYAMGWYRQAPGKERELVAAITRGSGGTYYADSVKGRFTISRDNAKNTVYLQMNSLKPEDTAVYYCATGSRSRGALRYAHFDYWGQGTQVTESS,high polyreactivity
2,QVQLVESGGGLVQAGGSLRLSCAASGFTFGRYAMGWYRQAPGKERELVAAITWSGGTTTYYADSVKGRFTISRDNAKNTVYLQMTSLKPEDTAVYYCAADLYFYIYSYNYWGQGTQVTVSS,low polyreactivity
3,QVQLVESGGGLVQAGGSLRLSCAASGFTFGRYAMGWYRQAPWKERELVADITWSGGSTYYADSVKGRFSISRDFAKNTVYLQMNSLKPEDTAVYYCNRLSKNREYDYWGQGTQVNVSS,high polyreactivity
4,QVQLVESGGGLVQAGGSLRLSCAASGFTFGSNAMGWYRQAPGKERELVAAISWSGGRTYYADSVKGRFTISRDNAKNTVYLQMNSLKPEDTAVYYCNKQYVKPWYRGYYYWGQGTQVTVSS,high polyreactivity
5,QVQLVESGGGLVQAGGSLRLSCAASGFTFGSNTMGWYRQAPGKERELVAAITTSGDSTYYADSVKGRFTISRDNAKNTVYLQMNSLKPEDTAVYYCAAERRYGRYYRLVRLLGQGTQVTVSS,high polyreactivity
6,QVQLVESGGGLVQAGGSLRLSCAASGFTFGSYAMGWYRQAPGKEREFVAAIRRSGSSTYYADSVKGRFTISRDNAKNTVYLQMTSLKPEDTAVYYCAADVYRRLRRYRYYYWGQGTQVTVSS,low polyreactivity
7,QVQLVESGGGLVQAGGSLRLSCAASGFTFGSYAMGWYRQAPGKEREFVAAISLGGARTYYADSVKGRFTISRDNAKNTVYLQMNSLKPEDTAVYYCNARGIGRSTKWSSRDYWGQGTQVTVSS,high polyreactivity
8,QVQLVESGGGLVQAGGSLRLSCAASGFTFGSYAMGWYRQAPGKERELVAAISTSGDTTYYADSVKGRFTISRDNAKNTVYLQMNSLKPEDTAVYYCAAYDWGWPYTLIPFYYWGQGTQVTVSS,low polyreactivity
9,QVQLVESGGGLVQAGGSLRLSCAASGFTFGSYAMGWYRQAPGKERELVAGITFSTGTTSYADSVKGRFTISRDNAKTTVYLQMNSLKPEDTAVYYCAADLIPNEDYWGQGTQVTVSS,low polyreactivity
10,QVQLVESGGGLVQAGGSLRLSCAASGFTFGSYAMGWYRQAPGKERELVAVITRSGRTNYADSVKGRFTISRDTAKNTVYLQMNSLKPEDTAVYYCNADDVDDEVSPELTEMDYWGQGTQVTVSS,low polyreactivity
11,QVQLVESGGGLVQAGGSLRLSCAASGFTFGSYTMGWYRQAPGKERELVAAITGRGGSTYYADSVKARFTISRDNAKNTVYLQMNSLKPVDTAVYYCAGRRGTTYVGYDYWGQGTQVTVSS,high polyreactivity
12,QVQLVESGGGLVQAGGSLRLSCAASGFTFGTYAMGWYRQAPGKERELVAGITSGDGTYYADSVKGRFTISRDNAKNTVYLQMNSLKPEDTAVYYCAVVHYQQYSWRVYFYPYDYWGQGTQVTVSS,high polyreactivity
13,QVQLVESGGGLVQAGGSLRLSCAASGFTFGVYAMGWYRQAPGKERELVAAISTTVGSTYYADSVKGRFTISRDNAKNTVYLQMNSLKPEDTAVYYCNADGYPDVGAGTYGYWGQGTQVTVSS,low polyreactivity
14,QVQLVESGGGLVQAGGSLRLSCAASGFTFGWYTMGWYRPAPGKERELVAAISLNGGSTYYADSVKGRFTISRDNAKNTVYLQMNSLKPEDTAVYYCAIGYRWPYYPYDYWGQGTQVTVSS,low polyreactivity
15,QVQLVESGGGLVQAGGSLRLSCAASGFTFGWYTMGWYRQAPGKEREFVAAISWSGTSTYYADSVKGRFTISRDNAKNTVYLQMNSLKAEDTAVYYCNKLRRGDMEYWGQGTQVTVSS,high polyreactivity
16,QVQLVESGGGLVQAGGSLRLSCAASGFTFGYNAMGWYRQAPGKERELVAAISWSGGTYYADSVKGRFTISRDNAKNTVYLQMNSLKPEDTAVYYCAAVVVYWTSQIYYDGYYYWGQGTQVTVSS,high polyreactivity

row,Sequence,polyreactivity (PSR sort gate)
1,QVQLVESGGGLVQAGGSLRLSCAASGFTFGYYTMGWYRQAPGKERELVAAISSGGSTNYADSVKGRFTISRDNAKNTVYLQMNSLKPEDTAVYYCTATQIGPYYLPFDSWGQGTQVTVSS,high polyreactivity
2,QVQLVESGGGLVQAGGSLRLSCAASGFTFGYYTMGWYRQAPGKERELVAAISWRGGRTYYADSVKGRFTISRDNAKNTVYLQMNSLKPEDTAVYYCAAEYTYGWTYRPFDYWGQGTQVTVSS,high polyreactivity
3,QVQLVESGGGLVQAGGSLRLSCAASGFTFHKNAMGWYRQAPGKERELVAAITNRGGSTYYADSVKGRFTISRDNAKNTVYLQMNSLKPEDTAVYYCAAELRPYITYVGPRKKFYYWGQGTQVTVSS,high polyreactivity
4,QVQLVESGGGLVQAGGSLRLSCAASGFTFHNYAMGWYRQAPGKERELVAAITWDGGSTYYADSVKGRFTISRDNEKNTVDLQLNRLKPEDTAVYYCALDQYYYYYADYNFDYWGQGTQVTVSS,high polyreactivity
5,QVQLVESGGGLVQAGGSLRLSCAASGFTFHNYAMGWYRQAPGKERELVAVIRWRGGSTYYADSVKGRFTISRDNAKNSVYLQMNSLKPEDTAFYYCAKRARGSYYWGYNYWGQGTQVTVSS,high polyreactivity
6,QVQLVESGGGLVQAGGSLRLSCAASGFTFHNYAMGWYRQAPGKERELVAVIRWRGGSTYYADSVKGRFTISRDNAKNTVYLQMNSLKPEDTAVYYCNALFRYSRDYWGQGTQVTVSS,high polyreactivity
7,QVQLVESGGGLVQAGGSLRLSCAASGFTFHPNSMGWYRQAPGKERELVASISSRGGSTYYADSVKGRFTISRDNAKNTVYLQMNSQKPEYTAVYYCNVRGTQYYGHIGFYYWGQGTQVTVSS,low polyreactivity
8,QVQLVESGGGLVQAGGSLRLSCAASGFTFHRYAMGWYRQAPGKERELVARINWSGGGTYYADSVKGRFTISRDNAKNTVYLQMNSLKPEDTAVYYCNARGVFYVYKHDYWGQGTQVTVSS,high polyreactivity
9,QVQLVESGGGLVQAGGSLRLSCAASGFTFHSYAMGWYRQAPGKERELVAAISGRGGSTYYADSVKGRFTISRDNAKNTVYLQMNSLKPEDTAVYYCARYGYHDYGYWGQCTQVTVSS,high polyreactivity
10,QVQLVESGGGLVQAGGSLRLSCAASGFTFHTYAMGWYRQAPGKERELVAAIDSSGGITYYADSVKGRFTISRDNAKNTVYLQMKSLKPEDTAVYYCAAVFLLFGFEWSYDYWGQGTQVTVSS,low polyreactivity
11,QVQLVESGGGLVQAGGSLRLSCAASGFTFHWYVMGWYRQAPGKERELVAAISRNGGRTYYADSVKGRFTISRDNAKNTVYLQMNSLKPEDTAVYYCATDYGWLYINSIWEYDYWGQGTQVTVSS,high polyreactivity
12,QVQLVESGGGLVQAGGSLRLSCAASGFTFHYYDMGWYRQAPGKERELVATISQSGTSTYYADSVKGRFTISRDNAKNSVYLQMHSLKPEDTAVYYCAADYIGYWYGYYWYEYWGQGTQVTVSS,low polyreactivity
13,QVQLVESGGGLVQAGGSLRLSCAASGFTFHYYGMGWYRQAPGKERELVAAINWSGSSTYYADSVKGRFTISRDNATNTVYLQMNSLKPEDSAVYYCAAEKRKLFQGVARYRYEYWGQGTQVTVSS,low polyreactivity
14,QVQLVESGGGLVQAGGSLRLSCAASGFTFIDYAMGWYRQAPGKERALVAAITSRGGSTYYADSVKGRFTISRDNAKNTVYLQMNSLKPEDTAVYYCNAGSSFWYAYEYWGQGTQVTVSS,high polyreactivity
15,QVQLVESGGGLVQAGGSLRLSCAASGFTFIRNAMGWYRQAPGKERELVAAISKRGGSTNYADSVKGRFTISRDNAKNTVYLQMNSLKPEDTAVYYCAAGGQVAWLDYYPMDYWGQGTQVTVSS,low polyreactivity
